Measured values taken from patent US20240269230A1.
Ends that are not written are not given here.

Tests used:
[1] = target: T1, kappa opioid receptor (the kOR), mouse, with C-terminal GFP (the kOR-EGFP) (mouse), P33534
T1 chain: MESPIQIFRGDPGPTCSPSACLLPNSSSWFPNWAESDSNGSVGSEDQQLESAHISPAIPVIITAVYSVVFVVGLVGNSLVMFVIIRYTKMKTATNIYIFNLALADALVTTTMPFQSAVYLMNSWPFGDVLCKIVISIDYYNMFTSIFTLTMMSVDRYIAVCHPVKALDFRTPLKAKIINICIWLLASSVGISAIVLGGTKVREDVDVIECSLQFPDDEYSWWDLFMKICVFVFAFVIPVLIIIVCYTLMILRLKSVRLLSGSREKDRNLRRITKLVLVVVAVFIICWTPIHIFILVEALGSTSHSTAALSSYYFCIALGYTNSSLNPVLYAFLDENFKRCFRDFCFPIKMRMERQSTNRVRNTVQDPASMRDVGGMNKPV

[2] = target: T1, kappa opioid receptor (the kOR), mouse, …; assay: cell-based or functional assay

Work on GLPVCGETCVGGTCNTPGCKCSWPVCTRN (not fully specified (bridges); ends and bridges not checked) [[T20K]-kalata B1] yielded a Ki [1] of 2.7 µM, a cAMP assay EC50 (HEK293 cells stably expressing the kOR) [2] of 17 µM and a leftward shift in the cAMP potency of the orthosteric ligand U50,488 [2] of 9 fold.
